Data: PMC6232143

Experiments:
[1] = biological target: His6.TssA2^A (1-478) (A. hydrophila); test: SEC-MALS; S200 10/300 column, 50 mM Tris.HCl (pH 8.0), 500 mM NaCl, ~20 °C; 4.5-6.8 mg/ml
[2] = biological target: His6.TssA2^A Nt2-CTD (223-478) (A. hydrophila); test: crystal structure; His6.TssA2^A Nt2-CTD (223-478), 3.13 Å, ten subunits in the asymmetric unit
[3] = biological target: His6.TssA2^A Nt2-CTD (223-478) (A. hydrophila); test: SEC-MALS; S200 10/300 column, 50 mM Tris.HCl (pH 8.0), 500 mM NaCl, ~20 °C; 4.5-6.8 mg/ml
[4] = biological target: TssA1^B CTD (303-373) (B. cenocepacia); test: crystal structure; TssA1^B CTD (303-373), 3.08 Å, spacegroup I222, eight monomers in the asymmetric unit
[5] = biological target: TssA1^B CTD fragment (303-347) (B. cenocepacia); test: crystal structure; TssA1^B CTD fragment 303-347 (clipped 303-373 construct), 1.78 Å, spacegroup I222
[6] = biological target: Native TssA1^B (1-373) (B. cenocepacia); test: SEC-MALS; Superose-6 10/300 column, 10 mM phosphate buffer (pH 7.4), 2.7 mM KCl, 137 mM NaCl, ~20 °C
[7] = biological target: His6.TssA1^B CTD H12-H14 (303-358) (B. cenocepacia); test: crystal structure; His6.TssA1^B CTD H12-H14 (303-358), 2.35 Å, two molecules in the asymmetric unit
[8] = biological target: His6.TssA2^A CTD (381-478) (A. hydrophila); test: SEC-MALS; S200 10/300 column, 50 mM Tris.HCl (pH 8.0), 500 mM NaCl, ~20 °C; 4.5-6.8 mg/ml
[9] = biological target: His6.TssA2^A Nt2 (223-387) (A. hydrophila); test: crystal structure; His6.TssA2^A Nt2 (223-387), ethyl mercury phosphate derivative, 2.16 Å, two monomers in the asymmetric unit
[10] = biological target: TssA2^A Nt1-Nt2.His6 (231-374) (A. hydrophila); test: crystal structure; TssA2^A Nt2 (231-374) from the Nt1-Nt2.His6 construct, 1.76 Å, four molecules in the asymmetric unit

## His6.TssA2^A (1-478) (natural protein)
[1]
  stoichiometry N: 10

## His6.TssA2^A Nt2-CTD (223-478) (domain or fragment)
[2]
  stoichiometry N: 10
[3]
  stoichiometry N: 10

## TssA1^B CTD (303-373) (domain or fragment)
[4]
  stoichiometry N: 32 subunits

## TssA1^B CTD fragment (303-347) (domain or fragment)
[5]
  stoichiometry N: 2

## Native TssA1^B (1-373) (natural protein)
[6]
  stoichiometry N: 30 subunits

## His6.TssA1^B CTD H12-H14 (303-358) (domain or fragment)
[7]
  stoichiometry N: 2

## His6.TssA2^A CTD (381-478) (domain or fragment)
[8]
  stoichiometry N: 10

## His6.TssA2^A Nt2 (223-387) (domain or fragment)
[9]
  stoichiometry N: 2

## TssA2^A Nt1-Nt2.His6 (231-374) (domain or fragment)
[10]
  stoichiometry N: 2
